What all share (assay type): physicochemical
Data set [1] is described as follows: Gelation kinetics of 0.5% RADA16 treated with cations and anions. The protocol:
Rheological measurements of gelation kinetics of 0.5% RADA16 (SEQ ID NO:1)+NaCl, KCl, and CaCl2) were evaluated. A solution of 0.5% RADA16 (SEQ ID NO:1) was prepared and gelation kinetics were observed by treatment with several cations (e.g., Nat, Ca^2+, K^+) and anions (e.g., Cl^−, CO3^2−, PO4^3−, SO4^2−). It was determined how long it will take for the peptide mixtures to gel and how to control that gelation time by varying the cation/anion type and concentration. […] In vivo and in vitro qualitative experiments and the resulting observations were supportive of these conclusions.

Data set [2] in a line: Rheological measurements of RADA16 with NaCl, KCl, CaCl2 (stiffness, reversibility). On the procedure: In a rheological comparison of […] (SEQ ID NO:1)+NaCl, KCl, and CaCl2), solutions of 0.5% RADA16 (SEQ ID NO:1) mixed with 0.005, 0.05, 0.125, 0.25, 0.5, and 1 M NaCl, KCl, and CaCl2) were prepared. The anion, chloride (Cl−), was kept the same to observe the effect of the cations, sodium (Na+), potassium (K+), and calcium (Ca2+). FIG. 21 provides a basic understanding of how varying the cations of a salt solution effects the viscoelastic properties and the stiffness of self-assembling peptides. […] This should be because Ca has […] higher ionic strength than Na and K at the same molar concentrations. Therefore, influence of salts on the peptide solution is more related to their ionic strength rather than their molar concentration, as shown in FIGS. 17-18 and Table 2a-c. In some embodiments, there is a correlation between the properties of the peptide solutions with salts based on the concentration of the salt.
Rheological measurements of stiffness of 2.5% RADA16 (SEQ ID NO:1) and 2.5% RADA16 (SEQ ID NO:1)+0.25 M CaCl2) was evaluated.
Rheological measurements of reversibility of 0.5% RADA16 (SEQ ID NO:1) solution with +0.125, 0.25, and 0.5 M CaCl2) were evaluated. Solutions of 0.5% RADA16 (SEQ ID NO:1) mixed with 0.125, 0.25, and 0.5 M CaCl2) were prepared. The structure of the self-assembled peptide solutions were disrupted thoroughly by application of mechanical stress through vortexing and sonication. The mixtures were placed at room temperature for 48 hours to allow self-assembly to take place. […] FIG. 23A presents raw rheological data of the control peptide solution with salts and the perturbed peptide solution while FIG. 23B provides a comparison of stiffness of the control peptide solution and the perturbed peptide solution.

Data set [3] is described as follows: Mechanical properties of IEIK13 with and without Indigo Carmine. The conditions noted are these: 1.5% IEIK13; 0.00585% Indigo Carmine; 24 hours post reconstitution. The protocol:
Indigo carmine powder was used to prepare a 1% solution in deionized (DI) water. Using IEIK13 (SEQ ID NO:2) powder, a 2 percent solution was prepared using DI water. The amount of IEIK13 (SEQ ID NO:2) was weighed out and the appropriate amount of DI water was added gently down the side of the container. Mixing was accomplished by vortexing for about 30 seconds, and then sonicating for 30 seconds. The solution was then centrifuged for about 10 to about 15 minutes at […]. The solution may undergo further vortexing and centrifuging until the solution is clear and without bubbles.
To obtain a final concentration of 0.00585% indigo carmine, the necessary amount of 1% IC is added to the appropriate amount of DI water to dilute 2% IEIK (SEQ ID NO:2) to 1.5% IEIK (SEQ ID NO:2). The solution is then vortexted for about 30 seconds and centrifuged for about 10 to about 15 minutes at 3000 rpm. The solution may undergo further vortexing and centrifuging until the solution is clear and without bubbles.
The solution was allowed to sit overnight at room temperature prior to use. The cap may be left off of the container during preparation to allow more efficient removal of bubbles.
Visualization of hydrogel spreading throughout the lumen of the lungs was necessary for determination of feasibility. Indigo Carmine was chosen as a common contrast reagent. […]

Data set [4] can be described thus: Rheological properties of 1% peptides before and after DMEM treatment for 2 minutes. The conditions noted are these: peptides 1%; DMEM 2 minutes; compared with weaker peptide solutions (i.e., PuraMatrix). On the procedure: The effects of Dulbecco's modified Eagle's medium (DMEM) (pH 7.4) on the rheological properties of IEIK13 (SEQ ID NO:2), KLD12 (SEQ ID NO:3), and PuraMatrix® (SEQ ID NO:1) were evaluated on a rheometer (AR500, TA Instruments) with 40 mm plates. DMEM is generally a cell culture medium that contains 6.4 g/L of NaCl, 3.4 g/L NaHCO3 (sodium bicarbonate), minor amounts of other salts, various amino acids, and 4.5 g/L of glucose. The pH level of DMEM is generally 7.2±0.2 and the osmolality is 335±30 mOsm/Kg H2O; both measurements are close to human physiological fluids such as blood.
Peptide solutions (1%) were kept at 4° C. for at least 48 hours before testing. To perform the experiment, 1 mL of peptide solution was gently pipetted and placed on the plate of the rheometer. 2 mL of DMEM solution was gently added around the peptide solution. The peptide solution was treated with DMEM for two minutes, then the media was removed, and the plates were placed at a measuring geometry gap at around 450 μm. Measurements were performed at 37° C. after 2 min of relaxation time. Frequency tests were performed from 1 rad/s to 100 rad/s at 1 Pa of oscillation stress.
The rheological properties of the peptides (1%) were compared before and after DMEM treatment for 2 minutes, as shown in FIG. 1A. […]

Turning to “Arg-Ala-Asp-Ala-Arg-Ala-Asp-Ala-Arg-Ala-Asp-Ala-Arg-Ala-Asp-Ala [PuraMatrix ®]”, the “gelation speed by anion” value is “quickest gelation” in data set [1] (chloride) and “slowest gelation” in data set [1] (sulfate). For the same substance, in data set [2] (0.5% RADA16, chloride salts at the same molar concentrations), the “enhancement of stiffness by Ca compared to Na or K” value was “best enhancement of stiffness”. Moreover, in data set [2] (2.5% RADA16 with addition of 0.125 M CaCl2), the “stiffness with added cation solution versus without” value is on record as “noticeable increase in stiffness”. Moreover, the storage modulus entry is listed as “about 25 Pa” in data set [2] (about 0.5 w/v percent, calcium chloride about 0.125 M); “about 44 Pa” in data set [2] (about 0.5 w/v percent, calcium chloride about 0.250 M); “about 52 Pa” in data set [2] (about 0.5 w/v percent, calcium chloride about 0.500 M); “about 600 Pa” in data set [2] (about 2.5 w/v percent, calcium chloride about 0.125 M).
On to “Ile-Glu-Ile-Lys-Ile-Glu-Ile-Lys-Ile-Glu-Ile-Lys-Ile [IEIK13]”, for which the “mechanical properties with versus without Indigo Carmine” value in data set [3] is recorded as “no significant difference”. The “fold increase of storage modulus after DMEM treatment” value in data set [4] is given as “lower-fold increase”.
